Data on one molecule can be found in paper PMC6346101 (2019).

This experiment addresses Biotinylated D/NP_(TAIL) fused to a biotinylation motif (Influenza D virus, strain …, UniProt A0A0E3VZU8 505-552). The experiment in a line: SPR. In general terms: Surface plasmon resonance follows binding to a sensor surface in real time, without labels.

B1: human importin-α7 without its IBB domain (amino-acids 58 to 536) (domain or fragment)
chain: not shown
Consider B1, for which the koff came out at 0.09 s⁻¹.

In general, koff refers to the first-order rate constant of dissociation. A lower koff goes with slow dissociation.
